Results as given in patent US20210388087A1 (Chugai, published 2021).

B1: CE115HA000 E61P one-arm antibody (antibody, human IgG1, kappa, L234A L235A, N297A, name in Kabat numbering)
heavy: QVQLVESGGGVVQPGRSLRLSCAASGFTFSNAWMHWVRQAPGKGLEWVAQIKAKSNNYATYYAPSVKGRFTISRDDSKNSLYLQMNSLKTEDTAVYYCRYVHYGAYYGVDAWGQGTTVTVSSASTKGPSVFPLAPSSKSTSGGTAALGCLVKDYFPEPVTVSWNSGALTSGVHTFPAVLQSSGLYSLSSVVTVPSSSLGTQTYICNVNHKPSNTKVDKKVEPKSCDKTHTCPPCPAPEAAGGPSVFLFPPKPKDTLMISRTPEVTCVVVDVSHEDPEVKFNWYVDGVEVHNAKTKPREEQYASTYRVVSVLTVLHQDWLNGKEYKCKVSNKALPAPIEKTISKAKGQPREPQVYTLPPSRCELTKNQVSLSCAVKGFYPSDIAVEWESNGQPENNYKTTPPVLDSDGSFFLVSKLTVDKSRWQQGNVFSCSVMHEALHNHYTQKSLSLSPDYKDDDDK
chain: EPKSSDKTHTCPPCPAPELLGGPSVFLFPPKPKDTLMISRTPEVTCVVVDVSHEDPEVKFNWYVDGVEVHNAKTKPREEQYNSTYRVVSVLTVLHQDWLNGKEYKCKVSNKALPAPIEKTISKAKGQPREPQVCTLPPSRDELTKNQVSLWCLVKGFYPSDIAVEWESNGQPENNYKTTPPVLDSDGSFFLYSKLTVDKSRWQQGNVFSCSVMHEALHNRYTQKSLSLSP
light: DIVMTQSPLSLPVTPGEPASISCRSSQSLVHSNRNTYLHWYQQKPGQAPRLLIYKVSNRFSGVPDRFSGSGSGTDFTLKISRVEAEDVGVYYCGQGTQVPYTFGQGTKLEIKRTVAAPSVFIFPPSDEQLKSGTASVVCLLNNFYPREAKVQWKVDNALQSGNSQESVTEQDSKDSTYSLSSTLTLSKADYEKHKVYACEVTHQGLSSPVTKSFNRGEC
B2: CE115HA000 E61Q one-arm antibody (antibody, human IgG1, kappa, L234A L235A, N297A, name in Kabat numbering)
heavy: QVQLVESGGGVVQPGRSLRLSCAASGFTFSNAWMHWVRQAPGKGLEWVAQIKAKSNNYATYYAQSVKGRFTISRDDSKNSLYLQMNSLKTEDTAVYYCRYVHYGAYYGVDAWGQGTTVTVSSASTKGPSVFPLAPSSKSTSGGTAALGCLVKDYFPEPVTVSWNSGALTSGVHTFPAVLQSSGLYSLSSVVTVPSSSLGTQTYICNVNHKPSNTKVDKKVEPKSCDKTHTCPPCPAPEAAGGPSVFLFPPKPKDTLMISRTPEVTCVVVDVSHEDPEVKFNWYVDGVEVHNAKTKPREEQYASTYRVVSVLTVLHQDWLNGKEYKCKVSNKALPAPIEKTISKAKGQPREPQVYTLPPSRCELTKNQVSLSCAVKGFYPSDIAVEWESNGQPENNYKTTPPVLDSDGSFFLVSKLTVDKSRWQQGNVFSCSVMHEALHNHYTQKSLSLSPDYKDDDDK
chain: EPKSSDKTHTCPPCPAPELLGGPSVFLFPPKPKDTLMISRTPEVTCVVVDVSHEDPEVKFNWYVDGVEVHNAKTKPREEQYNSTYRVVSVLTVLHQDWLNGKEYKCKVSNKALPAPIEKTISKAKGQPREPQVCTLPPSRDELTKNQVSLWCLVKGFYPSDIAVEWESNGQPENNYKTTPPVLDSDGSFFLYSKLTVDKSRWQQGNVFSCSVMHEALHNRYTQKSLSLSP
light: DIVMTQSPLSLPVTPGEPASISCRSSQSLVHSNRNTYLHWYQQKPGQAPRLLIYKVSNRFSGVPDRFSGSGSGTDFTLKISRVEAEDVGVYYCGQGTQVPYTFGQGTKLEIKRTVAAPSVFIFPPSDEQLKSGTASVVCLLNNFYPREAKVQWKVDNALQSGNSQESVTEQDSKDSTYSLSSTLTLSKADYEKHKVYACEVTHQGLSSPVTKSFNRGEC
B3: CE115HA000 G98A one-arm antibody (antibody, human IgG1, kappa, L234A L235A, N297A, name in Kabat numbering)
heavy: QVQLVESGGGVVQPGRSLRLSCAASGFTFSNAWMHWVRQAPGKGLEWVAQIKAKSNNYATYYAESVKGRFTISRDDSKNSLYLQMNSLKTEDTAVYYCRYVHYAAYYGVDAWGQGTTVTVSSASTKGPSVFPLAPSSKSTSGGTAALGCLVKDYFPEPVTVSWNSGALTSGVHTFPAVLQSSGLYSLSSVVTVPSSSLGTQTYICNVNHKPSNTKVDKKVEPKSCDKTHTCPPCPAPEAAGGPSVFLFPPKPKDTLMISRTPEVTCVVVDVSHEDPEVKFNWYVDGVEVHNAKTKPREEQYASTYRVVSVLTVLHQDWLNGKEYKCKVSNKALPAPIEKTISKAKGQPREPQVYTLPPSRCELTKNQVSLSCAVKGFYPSDIAVEWESNGQPENNYKTTPPVLDSDGSFFLVSKLTVDKSRWQQGNVFSCSVMHEALHNHYTQKSLSLSPDYKDDDDK
chain: EPKSSDKTHTCPPCPAPELLGGPSVFLFPPKPKDTLMISRTPEVTCVVVDVSHEDPEVKFNWYVDGVEVHNAKTKPREEQYNSTYRVVSVLTVLHQDWLNGKEYKCKVSNKALPAPIEKTISKAKGQPREPQVCTLPPSRDELTKNQVSLWCLVKGFYPSDIAVEWESNGQPENNYKTTPPVLDSDGSFFLYSKLTVDKSRWQQGNVFSCSVMHEALHNRYTQKSLSLSP
light: DIVMTQSPLSLPVTPGEPASISCRSSQSLVHSNRNTYLHWYQQKPGQAPRLLIYKVSNRFSGVPDRFSGSGSGTDFTLKISRVEAEDVGVYYCGQGTQVPYTFGQGTKLEIKRTVAAPSVFIFPPSDEQLKSGTASVVCLLNNFYPREAKVQWKVDNALQSGNSQESVTEQDSKDSTYSLSSTLTLSKADYEKHKVYACEVTHQGLSSPVTKSFNRGEC
B4: CE115HA000 G65E one-arm antibody (antibody, human IgG1, kappa, L234A L235A, N297A, name in Kabat numbering)
heavy: QVQLVESGGGVVQPGRSLRLSCAASGFTFSNAWMHWVRQAPGKGLEWVAQIKAKSNNYATYYAESVKERFTISRDDSKNSLYLQMNSLKTEDTAVYYCRYVHYGAYYGVDAWGQGTTVTVSSASTKGPSVFPLAPSSKSTSGGTAALGCLVKDYFPEPVTVSWNSGALTSGVHTFPAVLQSSGLYSLSSVVTVPSSSLGTQTYICNVNHKPSNTKVDKKVEPKSCDKTHTCPPCPAPEAAGGPSVFLFPPKPKDTLMISRTPEVTCVVVDVSHEDPEVKFNWYVDGVEVHNAKTKPREEQYASTYRVVSVLTVLHQDWLNGKEYKCKVSNKALPAPIEKTISKAKGQPREPQVYTLPPSRCELTKNQVSLSCAVKGFYPSDIAVEWESNGQPENNYKTTPPVLDSDGSFFLVSKLTVDKSRWQQGNVFSCSVMHEALHNHYTQKSLSLSPDYKDDDDK
chain: EPKSSDKTHTCPPCPAPELLGGPSVFLFPPKPKDTLMISRTPEVTCVVVDVSHEDPEVKFNWYVDGVEVHNAKTKPREEQYNSTYRVVSVLTVLHQDWLNGKEYKCKVSNKALPAPIEKTISKAKGQPREPQVCTLPPSRDELTKNQVSLWCLVKGFYPSDIAVEWESNGQPENNYKTTPPVLDSDGSFFLYSKLTVDKSRWQQGNVFSCSVMHEALHNRYTQKSLSLSP
light: DIVMTQSPLSLPVTPGEPASISCRSSQSLVHSNRNTYLHWYQQKPGQAPRLLIYKVSNRFSGVPDRFSGSGSGTDFTLKISRVEAEDVGVYYCGQGTQVPYTFGQGTKLEIKRTVAAPSVFIFPPSDEQLKSGTASVVCLLNNFYPREAKVQWKVDNALQSGNSQESVTEQDSKDSTYSLSSTLTLSKADYEKHKVYACEVTHQGLSSPVTKSFNRGEC
B5: CE115HA000 F29V one-arm antibody (antibody, human IgG1, kappa, L234A L235A, N297A, name in Kabat numbering)
heavy: QVQLVESGGGVVQPGRSLRLSCAASGFTVSNAWMHWVRQAPGKGLEWVAQIKAKSNNYATYYAESVKGRFTISRDDSKNSLYLQMNSLKTEDTAVYYCRYVHYGAYYGVDAWGQGTTVTVSSASTKGPSVFPLAPSSKSTSGGTAALGCLVKDYFPEPVTVSWNSGALTSGVHTFPAVLQSSGLYSLSSVVTVPSSSLGTQTYICNVNHKPSNTKVDKKVEPKSCDKTHTCPPCPAPEAAGGPSVFLFPPKPKDTLMISRTPEVTCVVVDVSHEDPEVKFNWYVDGVEVHNAKTKPREEQYASTYRVVSVLTVLHQDWLNGKEYKCKVSNKALPAPIEKTISKAKGQPREPQVYTLPPSRCELTKNQVSLSCAVKGFYPSDIAVEWESNGQPENNYKTTPPVLDSDGSFFLVSKLTVDKSRWQQGNVFSCSVMHEALHNHYTQKSLSLSPDYKDDDDK
chain: EPKSSDKTHTCPPCPAPELLGGPSVFLFPPKPKDTLMISRTPEVTCVVVDVSHEDPEVKFNWYVDGVEVHNAKTKPREEQYNSTYRVVSVLTVLHQDWLNGKEYKCKVSNKALPAPIEKTISKAKGQPREPQVCTLPPSRDELTKNQVSLWCLVKGFYPSDIAVEWESNGQPENNYKTTPPVLDSDGSFFLYSKLTVDKSRWQQGNVFSCSVMHEALHNRYTQKSLSLSP
light: DIVMTQSPLSLPVTPGEPASISCRSSQSLVHSNRNTYLHWYQQKPGQAPRLLIYKVSNRFSGVPDRFSGSGSGTDFTLKISRVEAEDVGVYYCGQGTQVPYTFGQGTKLEIKRTVAAPSVFIFPPSDEQLKSGTASVVCLLNNFYPREAKVQWKVDNALQSGNSQESVTEQDSKDSTYSLSSTLTLSKADYEKHKVYACEVTHQGLSSPVTKSFNRGEC
B6: CE115HA000 G65D one-arm antibody (antibody, human IgG1, kappa, L234A L235A, N297A, name in Kabat numbering)
heavy: QVQLVESGGGVVQPGRSLRLSCAASGFTFSNAWMHWVRQAPGKGLEWVAQIKAKSNNYATYYAESVKDRFTISRDDSKNSLYLQMNSLKTEDTAVYYCRYVHYGAYYGVDAWGQGTTVTVSSASTKGPSVFPLAPSSKSTSGGTAALGCLVKDYFPEPVTVSWNSGALTSGVHTFPAVLQSSGLYSLSSVVTVPSSSLGTQTYICNVNHKPSNTKVDKKVEPKSCDKTHTCPPCPAPEAAGGPSVFLFPPKPKDTLMISRTPEVTCVVVDVSHEDPEVKFNWYVDGVEVHNAKTKPREEQYASTYRVVSVLTVLHQDWLNGKEYKCKVSNKALPAPIEKTISKAKGQPREPQVYTLPPSRCELTKNQVSLSCAVKGFYPSDIAVEWESNGQPENNYKTTPPVLDSDGSFFLVSKLTVDKSRWQQGNVFSCSVMHEALHNHYTQKSLSLSPDYKDDDDK
chain: EPKSSDKTHTCPPCPAPELLGGPSVFLFPPKPKDTLMISRTPEVTCVVVDVSHEDPEVKFNWYVDGVEVHNAKTKPREEQYNSTYRVVSVLTVLHQDWLNGKEYKCKVSNKALPAPIEKTISKAKGQPREPQVCTLPPSRDELTKNQVSLWCLVKGFYPSDIAVEWESNGQPENNYKTTPPVLDSDGSFFLYSKLTVDKSRWQQGNVFSCSVMHEALHNRYTQKSLSLSP
light: DIVMTQSPLSLPVTPGEPASISCRSSQSLVHSNRNTYLHWYQQKPGQAPRLLIYKVSNRFSGVPDRFSGSGSGTDFTLKISRVEAEDVGVYYCGQGTQVPYTFGQGTKLEIKRTVAAPSVFIFPPSDEQLKSGTASVVCLLNNFYPREAKVQWKVDNALQSGNSQESVTEQDSKDSTYSLSSTLTLSKADYEKHKVYACEVTHQGLSSPVTKSFNRGEC

Molecular target: T1, CD3 epsilon homodimer protein (UniProt P07766 23-126)
T1 construct: immobilized on Sensor chip CM4 by amine coupling; also called CD3 (CD3 epsilon)
Assay: SPR (Biacore T200), CD3 epsilon homodimer on CM4 chip, one-arm antibody as analyte, 25 C;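 also: homodimer attached to the sensor surface via amine coupling, HBS-EP+ used as running buffer during binding runs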
Protocol: An appropriate amount of CD3 epsilon homodimer protein was immobilized onto Sensor chip CM4 (GE Healthcare Japan Corp.) by the amine coupling method. Then, the antibody having an appropriate concentration was injected thereto as an analyte and allowed to interact with the CD3 epsilon homodimer protein on the sensor chip. Then, the sensor chip was regenerated by the injection of 10 mmol/L glycine-HCl (pH 1.5). The assay was conducted at 25 degrees C., and HBS-EP+(GE Healthcare Japan Corp.) was used as a running buffer. […] Each parameter was calculated using Biacore T200 Evaluation Software (GE Healthcare Japan Corp.).

T1 sequence (P07766 23-126): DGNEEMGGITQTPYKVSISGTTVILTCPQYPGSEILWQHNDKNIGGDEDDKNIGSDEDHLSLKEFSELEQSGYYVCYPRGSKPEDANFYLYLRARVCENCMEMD

Point of comparison: B5, “ratio of amounts bound (altered form / CE115HA000)” value 0.36. Against it:
- B1 — higher, 1.07
- B2 — higher, 1.07
- B3 — higher, 1.1
- B4 — higher, 0.78
- B6 — higher, 0.76
